Test results reported in patent publication US11655307B2, “Anti-doublecortin-like kinase 1 antibodies and methods of use” (The Board of Regents of the University of Oklahoma, priority 2017, dated 2023).
“Also recorded” adds a separate entry of the source. Each block holds one molecule with its values, some of them ahead of it.

How the values were obtained:
[1] = system: Caki-2 cells overexpressing DCLK1; assay: Proliferation/drug resistance assay (MTT), DCLK1-overexpressing cells; type: cell-based, human; conditions: increasing drug concentrations; FIG. 16-17
Source text: This gBlock also contains a part of human DCLK1 isoform 1 sequence shared with isoform 2, with the addition of the unique DCLK1 isoform 2 C-terminal sequence (NCBI Reference Sequence: XM_005266592.2). The vector containing DCLK1 isoform 1 and the gBlock were digested with EcoRI and Scat Both digested vector and gBlock fragment were gel purified and DCLK1 isoform 2 was constructed by ligating the digested vector with the synthetic DNA fragment. The ligated cDNA product was confirmed by automatic sequencing. […] RCC cell line Caki-2 was infected with Lentivirus containing human DCLK1 cDNA sequence to overexpress DCLK1 Isoform 2/long-α (caki2-dsRed-DCLK1) or red fluorescent protein (RFP) cDNA as control (caki2-dsRed) and selected to 100% expression with puromycin.
Cells (5000/well) were seeded into a 96-well tissue culture plate in quadruplicate. […] 48 or 72 h after incubation, 10 μL of MTT (RND Systems) was added to each well and cells were incubated at 37° C. for 4 h. […] In order to fully dissolve the precipitated MTT crystals, the plate was placed on a shaker at low speed for 1 min and a microplate reader was used to read the OD570 for each well.
The high level of expression of vascular endothelial growth factor (VEGF) and its receptors in RCC supports its highly vascular nature making VEGF and its receptors therapeutic targets. […] Given the tight relationship between sternness and the response to targeted therapies and its importance in patient survival, we further investigated DCLK1's role in this process. Caki-2 cells overexpressing DCLK1 were seeded into 96-well plates, allowed to attach overnight, and then treated with increasing concentrations of sunitinib or sorafenib. Relative cell viability was then evaluated by MTT assay.
The intracellular serine/threonine kinase mTOR is involved in a wide range of pathways and plays an essential role in cellular metabolism and cancer progression.

[2] = system: ACHN cells; assay: In vitro PBMC-killing assay (Caspase-3/7 Glo), renal cancer cells; type: cell-based; conditions: antibody pretreatment, then 72 h co-culture with human PBMC; FIG. 24A
Procedure: ACHN cells were seeded into a 96-well plate at 5×10^4 cells per well and allowed to attach overnight at 37° C. CBT-15 mAB or isotype control mAB were added to the ACHN wells at concentrations of 100 μg/mL in quadruplicate and incubated at 37° C. for 72 h. After mAB treatment, the media was replaced and 1.25×10^5 primary human PBMC cells (ATCC) were co-incubated with the ACHN cells for 72 h. Finally, luminescent CaspaseGlo® 3/7 activity (Promega) assay was performed according to the manufacturer's protocol as a surrogate measure of apoptosis.
(§1) To further assess the functional relevance of these findings we seeded ACHN renal and AsPC-1 pancreatic cancer cells into 96 wells and subjected them to antibody-dependent cell-mediated cytotoxicity assay. Briefly, 10^4 cancer cells were seeded into each well after 48 hours pretreatment with either isotype control or CBT-15 monoclonal antibody. Human peripheral blood […] were then seeded into each well at 10^5 cells per well and co-cultured for 72 h. After 72 h Caspase-3/7 Glo assay was performed to assess apoptosis.

[3] = system: AsPC-1 pancreatic cancer cells; assay: In vitro PBMC-killing assay (Caspase-3/7 Glo), pancreatic cancer cells; type: cell-based; conditions: 48 h antibody pretreatment, then 72 h co-culture with human PBMC; FIG. 24B
Procedure: as §1

[4] = molecular target: T1, DCLK1 isoform 4 purified protein (Homo sapiens, UniProt O15075); assay: Western blotting against purified DCLK1 protein; type: binding; conditions: FIG. 1
T1 sequence (O15075 1-433 isoform O15075-4): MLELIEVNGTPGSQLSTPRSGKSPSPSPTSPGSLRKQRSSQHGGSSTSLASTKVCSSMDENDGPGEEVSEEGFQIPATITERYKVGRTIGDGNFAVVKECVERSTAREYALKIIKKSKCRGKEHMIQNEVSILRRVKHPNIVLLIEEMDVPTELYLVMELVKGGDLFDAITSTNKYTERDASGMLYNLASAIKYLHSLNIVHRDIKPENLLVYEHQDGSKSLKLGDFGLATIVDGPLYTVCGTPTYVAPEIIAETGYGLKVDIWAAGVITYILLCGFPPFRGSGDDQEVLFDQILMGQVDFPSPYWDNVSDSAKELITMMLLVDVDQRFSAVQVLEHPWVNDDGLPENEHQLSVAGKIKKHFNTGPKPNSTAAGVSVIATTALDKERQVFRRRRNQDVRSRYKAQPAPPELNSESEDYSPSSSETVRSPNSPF
Procedure: Lysates from ACHN or CAKI2 cells were subjected to Western blot analysis. The concentration of total proteins was determined by BCA protein assay (Pierce, Rockford, Ill.). 40 μg of protein lysates were size separated on a 4%-20% SDS polyacrylamide gel and transferred onto a PVDF membrane. The membrane was blocked in 1% caseine for 30 minutes and probed with primary antibody α-DCLK1 (ABCAM, ab31704), HIF-1α (ABCAM, ab2185), Vimentin (Santa Cruz, S.C.-7557), ALDH1A1 (ABCAM, ab52492), β-Actin (ABCAM, ab8226) overnight at 4° C. The membrane was then washed 3 times with TBST and probed with species-appropriate secondary antibody (cw800-conjugated) for 30 mins at room temperature protected from light. Finally, proteins were detected using a LICOR Odyssey Infrared Imager and density quantification was performed in Image Studio Lite (LICOR) where appropriate.
The resulting monoclonal antibodies produced from this screening process included an Immunoglobulin A species (CBT-15A) and an Immunoglobulin G213 species (CBT-15G). Following purification of the resulting antibodies, their affinity for DCLK1 was confirmed by Western blotting against DCLK1 isoform 4 purified protein (FIG. 1). […] The ability of these antibodies to bind extracellular DCLK1 was further apparent in FACS sorting experiments. […]

[5] = system: pancreatic cancer SW1990 tumor xenograft; assay: SW1990 xenograft tumor study; type: in vivo, mice; conditions: 25 mg/kg biweekly
Procedure: 0.5×10^6 cells were injected into the flanks of 8 week-old athymic nude mice and the resulting tumors were allowed to grow to an average volume 100 mm^3. Upon reaching this volume we began delivering CBT-15 or isotype control mAB at 25 mg/kg biweekly. Tumor volume measurements were taken approximately every other day. At the end of 4 weeks from the start of injections animals were culled and tumors were excised, measured, and weighed.

Molecule: CO[C@H]1C[C@@H]2CC[C@@H](C)[C@@](O)(O2)C(=O)C(=O)N2CCCC[C@H]2C(=O)O[C@H]([C@H](C)C[C@@H]2CC[C@@H](OCCO)[C@H](OC)C2)CC(=O)[C@H](C)/C=C(\C)[C@@H](O)[C@@H](OC)C(=O)[C@H](C)C[C@H](C)/C=C/C=C/C=C/1C [everolimus]
sensitivity of DCLK1-overexpressing cells to the drug compared to dsRed vector control cells (relative cell viability, MTT) [1]: significantly decreases sensitivity

Molecule: CNC(=O)c1cc(Oc2ccc(NC(=O)Nc3ccc(Cl)c(C(F)(F)F)c3)cc2)ccn1 [sorafenib]
sensitivity of DCLK1-overexpressing cells to the drug compared to dsRed vector control cells (relative cell viability, MTT) [1]: did not elicit significant resistance; also recorded: not resistant

Molecule: CO[C@H]1C[C@@H]2CC[C@@H](C)[C@@](O)(O2)C(=O)C(=O)N2CCCC[C@H]2C(=O)O[C@H]([C@H](C)C[C@@H]2CC[C@@H](OC(=O)C(C)(CO)CO)[C@H](OC)C2)CC(=O)[C@H](C)/C=C(\C)[C@@H](O)[C@@H](OC)C(=O)[C@H](C)C[C@H](C)/C=C/C=C/C=C/1C [temsirolimus]
sensitivity of DCLK1-overexpressing cells to the drug compared to dsRed vector control cells (relative cell viability, MTT) [1]: significantly decreases sensitivity

affinity for DCLK1 by Western blot (detection of purified DCLK1 protein) [4]: confirmed; also recorded: detect
B1: CBT-15G: Anti-DCLK1 mouse monoclonal antibody, Immunoglobulin G213 species, raised against immunogen no. 8; VH SEQ ID NO:24, VL SEQ ID NO:26 (antibody, V domains shown)
VH: EVQLQQSGTALARPGASVKMSCKASGYSFTSYWMHWVKQRPGQGLEWIGAIYPGKSDTSYNQKFKGKAKLTAVTSASTAYMELSSLTNEDSAVYYCTRYGKGAMDYWGQGTSVTVSS
VL: DIVLTQSHKFMSTSVGDRVTITCKASQDVNTAVAWYQKKPGQSPKLLIYWASTRLTGVPDRFTGSGSGTDYTLTISSVQAEDLALYYCQQHYSTPYTFGGGTKLEIK
modifications: HC variable AA sequence of CBT-15G; LC variable AA sequence of CBT-15G
PBMC mediated apoptosis, Caspase-3/7 activity relative to isotype control [2]: can sensitize
immune cell mediated cell killing, Caspase-3/7 activity relative to isotype control [3]: significantly increased; also recorded: increase
excised tumor volume vs isotype mAB ([5]; end of treatment, FIG. 29, 32): significant decrease
excised tumor weight vs isotype mAB ([5]; end of treatment, FIG. 30, 33): decrease
xenograft tumor growth (tumor volume over time) vs isotype mAB ([5]; athymic nude mice, 4 weeks, FIG. 28, 31, 25 mg/kg): strongly inhibited; also recorded: substantially reduced
